Results on seven molecules are retold here after PMC10461807 (Frontiers in Immunology, 2023).

The labels stand for the following.
B1: anti-CD30 mAb 12B1 (antibody, V domains shown)
VH: EVKLEESGTELVKPGASVKLSCKASGYTFTSYWMHWVKQRPGQGLEWIGNINPTNGGTNYNEKFKSKATLTVDKSSRTAYMQLSSLTSGDSAVYYCARRDFITTSGFAYWGQGTLVTVSA
VL: DIVMTQTTASLSTSVGETVTITCRASGNLHSYLTWYQQKQGKSPQLLVYNAKTLADGVPSRFSGSGSGTQYSLKIDSLQPEDFGSYYCQHFWTTPFTFGSGTKLEIK
notes: also called clone 12B1; source: mouse hybridoma (custom generated by Genscript), serum-free supernatant, purified (rProtein A GraviTrap)
B2: anti-CD30 mAb 15B8 (antibody, V domains shown)
VH: QVQLEQSGTELVKPGASVKLSCKASGYTFTSYWMHWVKQRPGQGLEWIGNINPSNGGTNYNEKFKSKATLTVDKSSSTAYMQLSSLTSEDSAIYYCARRNNYYASSPFAYWGQGTLVSVSA
VL: B1 VL with T8P, T13A, L29I, S31N, T34A, D76N, T93S
notes: also called clone 15B8; source: mouse hybridoma (custom generated by Genscript), serum-free supernatant, purified (rProtein A GraviTrap)
B3: anti-CD30 mAb 8D10 (antibody, V domains shown)
VH: QVQLQESGTELVKPGASVKLSCKASGYTFTSYWMHWMKQRPGQGLEWIGNINPSNGGTNYNEKFKNKATLTVDKSSSTAYMQLSSLTSEDSAVYYCARRDYYYGSSYGFDVWGTGTTVTVSS
VL: DIVMTQSPASQSASLGESVTITCLASQTIGTWLAWYQQKPGKSPQFLIYAATSLADGVPSRFSGSGSGTKFSFKISSLQAEDFVSYYCQQLYSTPFTFGGGTKLEIK
notes: also called clone 8D10; source: mouse hybridoma (custom generated by Genscript), serum-free supernatant, purified (rProtein A GraviTrap)
B4: anti-CD30 mAb 10C2 (antibody, V domains shown)
VH: QVQLEQSGPVLVKPGASVKMSCKASGYTFTDYYMNWVKQSHGKSLEWIGVINPYNGGTSYNQKFKGKATLTVDKSSSTACMELNCLTSEDSAVYYCTLGAYWGQGTSVTVSS
VL: not shown
notes: also called clone 10C2; source: mouse hybridoma (custom generated by Genscript), serum-free supernatant, purified (rProtein A GraviTrap)
B5: anti-CD30 mAb 13H1 (antibody, V domains shown)
VH: QVQLQQSGTELVKPGASVKLSCKASGHTFTSYWMHWVKQRPGQGLEWIGNINPSNGGTNYNEKFKSKATLTVDKSSSTAYMQLSSLTSEDSAVYYCARRGYYGSSSYWSFDVWGTGTTVTVSS
VL: DIVMTQTPKSMSMSVGERVTLSCKASENVGTYVSWYQQKPEQSPKVLIYGASNRFTGVPDRFTGSGSATDFTLTISSVQTEDLADYHCGQSYSYPLTFGAGTKLELK
notes: also called clone 13H1; source: mouse hybridoma (custom generated by Genscript), serum-free supernatant, purified (rProtein A GraviTrap)
B6: anti-CD30 mAb 8D10 (antibody, V domains shown)
VH: B3 VH
VL: B3 VL
notes: IgG2a constant part; kappa light chain; source: mouse hybridoma supernatant (serum-free medium), purified on rProtein A GraviTrap column
B7: anti-CD30 mAb 10C2 (antibody, V domains shown)
VH: B4 VH
VL: not shown
notes: as for B6

Positions count from the first letter of the chain named.

The target of one assay is T1, recombinant huCD30 (R&D) (Homo sapiens, UniProt P28908).
T1 construct: recombinant human CD30 from R&D; also called rhCD30; huCD30 protein; source: bought: R&D
T1 sequence (P28908 19-385): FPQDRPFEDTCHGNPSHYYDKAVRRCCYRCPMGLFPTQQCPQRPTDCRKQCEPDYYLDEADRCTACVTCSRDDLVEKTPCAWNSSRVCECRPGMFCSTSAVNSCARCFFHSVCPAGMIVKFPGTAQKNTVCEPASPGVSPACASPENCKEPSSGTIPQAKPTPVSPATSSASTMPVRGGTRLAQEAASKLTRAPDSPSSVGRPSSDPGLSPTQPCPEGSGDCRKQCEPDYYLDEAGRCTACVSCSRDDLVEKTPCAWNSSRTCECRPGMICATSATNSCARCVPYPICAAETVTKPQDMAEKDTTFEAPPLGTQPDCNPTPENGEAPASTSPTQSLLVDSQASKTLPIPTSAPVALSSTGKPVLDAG
Kind of assay: SPR; BIAcore 3000, 25°C; recombinant huCD30 amine-coupled on a CM5 chip; mAbs as analyte in serial 1:2 dilutions from 20 nM; 10 mM Hepes pH 7.4, 150 mM NaCl, 0.005% P20, 0.1% BSA; 1:1 Langmuir fit. The following applies: both partners purified. In general terms: Surface plasmon resonance follows binding to a sensor surface in real time, without labels.
The term Kd denotes the constant that tells how readily two partners part at equilibrium. One may read the koff as a measure of how fast the partners let go of each other. A word on the kon: it is the rate constant with which the complex forms. Regarding B1, the Ka turned out to be 5.02e+09 M⁻¹, the Kd was determined as 0.199 nM, the dissociation rate constant (koff) is 1.22e-05 s⁻¹ and the kon stood at 61300 M⁻¹ s⁻¹.

Consider B2, for which the Ka stood at 1.02e+09 M⁻¹, the Kd was found to be 0.978 nM, the koff was found to be 0.000493 s⁻¹ and the on-rate constant (kon) was determined as 504000 M⁻¹ s⁻¹.

Take B3: the Ka was determined as 1.69e+10 M⁻¹, the Kd was 0.0592 nM, the koff came out at 6e-06 s⁻¹ and the on-rate (kon) turned out to be 101000 M⁻¹ s⁻¹.

In the case of B4, the Ka worked out at 1.65e+09 M⁻¹, the Kd turned out to be 0.607 nM, the dissociation rate constant (koff) turned out to be 0.000186 s⁻¹ and the on-rate constant (kon) was determined as 307000 M⁻¹ s⁻¹.

Turning to B5, the Ka is 6.7e+09 M⁻¹, the Kd was 0.149 nM, the koff was 0.000106 s⁻¹ and the kon amounted to 708000 M⁻¹ s⁻¹.

For another assay, the target named is T2, Recombinant huCD30 (Homo sapiens, UniProt P28908).
T2 construct: human CD30 (TNFRSF8), recombinant protein from R&D; also called rhCD30; huCD30 protein; source: bought: R&D
T2 sequence (P28908 19-385): as above
Kind of assay: SPR; mAbs (5 ng/ul) immobilized on a Protein G sensor chip at about 200 RU; rhCD30 as analyte (0-2500 nM for the 8D10 and 10C2 flow cells), 2 min at 40 ul/min, 3 min dissociation; 25°C; 10 mM Hepes pH 7.4, 150 mM NaCl, 0.005% P20; BIAcore 3000; 1:1 Langmuir fit. Particulars: both partners purified.
Consider B6, for which the Ka came to 878000 M⁻¹, the Kd is 1140 nM, the koff was found to be 0.00523 s⁻¹ and the kon came out at 4530 M⁻¹ s⁻¹.

For the molecule B7, the Ka was 579000 M⁻¹, the Kd was determined as 1760 nM, the koff is 0.0101 s⁻¹ and the kon amounted to 5880 M⁻¹ s⁻¹.
